From paper PMC6363758, “Zinc regulates ERp44-dependent protein quality control in the early secretory pathway” (Nature Communications, 2019) come the findings set out here.

The term Kd denotes the concentration at which binding is half-saturated.

Experiment [1] has as its target T1, Ero1α Cys104/Cys131Cys166Ala mutant (recombinant) (UniProt Q96HE7 24-468, Cys104/Cys131Cys166Ala | Cys104/Cys131Cys166Ala | Cys104/Cys131Cys166Ala).
T1 construct: Ero1α with Cys104, Cys131 and Cys166 replaced by Ala; used in all the in vitro experiments
T1 sequence (looked up): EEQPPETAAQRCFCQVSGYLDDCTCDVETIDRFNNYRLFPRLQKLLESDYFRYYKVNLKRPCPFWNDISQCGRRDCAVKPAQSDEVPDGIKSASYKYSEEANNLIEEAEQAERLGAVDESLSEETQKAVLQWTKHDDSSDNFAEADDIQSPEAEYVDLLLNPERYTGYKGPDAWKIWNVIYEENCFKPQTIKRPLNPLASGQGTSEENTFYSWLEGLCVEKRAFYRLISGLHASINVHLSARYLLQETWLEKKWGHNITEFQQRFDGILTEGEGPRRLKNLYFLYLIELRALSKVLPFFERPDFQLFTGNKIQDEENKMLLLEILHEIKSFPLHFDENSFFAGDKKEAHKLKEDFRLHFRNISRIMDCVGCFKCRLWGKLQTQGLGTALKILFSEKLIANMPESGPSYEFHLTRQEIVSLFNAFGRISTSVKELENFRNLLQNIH
The experiment is described as follows: ITC; 200 µM ERp44 injected into 15 µM Ero1α and 15 µM ZnCl2; 20 mM BisTris-HCl pH 6.2, 150 mM NaCl, 283 K. The note with it: both partners purified. For orientation: Isothermal titration calorimetry measures the heat released or taken up as one component is titrated into another.

Experiment [2] deals with T1, Ero1α Cys104/Cys131Cys166Ala mutant …. Kind of experiment: ITC; 420 µM Ero1α injected into 30 µM ERp44 WT, no Zn2+; 20 mM BisTris-HCl pH 6.2, 150 mM NaCl, 283 K. The note with it: both partners purified.

B1: ERp44 WT (recombinant) (natural protein)
chain: EITSLDTENIDEILNNADVALVNFYADWCRFSQMLHPIFEEASDVIKEEFPNENQVVFARVDCDQHSDIAQRYRISKYPTLKLFRNGMMMKREYRGQRSVKALADYIRQQKSDPIQEIRDLAEITTLDRSKRNIIGYFEQKDSDNYRVFERVANILHDDCAFLSAFGDVSKPERYSGDNIIYKPPGHSAPDMVYLGAMTNFDVTYNWIQDKCVPLVREITFENGEELTEEGLPFLILFHMKEDTESLEIFQNEVARQLISEKGTINFLHADCDKFRHPLLHIQKTPADCPVIAIDSFRHMYVFGDFKDVLIPGKLKQFVFDLHSGKLHREFHHGPDPTDTAPGEQAQDVASSPPESSFQKLAPSEYRYTLLRDRDEL
notes: ERp44, chaperone of the PDI family; Probably the mature protein without its signal peptide (surmise)
In the case of B1, the Kd was determined as 220 nM in experiment [1] and 1310 nM in experiment [2].
